According to PMC8182806, “Cryo-EM structures of the full-length human KCC2 and KCC3 cation-chloride cotransporters” (Cell Research, 2020):
One block for each molecule: values may come before it.

What was measured:
[1] = molecular target: human KCC3 (SLC12A6), K+-Cl- cotransporter 3, full length (human) (UniProt Q9UHW9); test: cryo-EM structure; single particle cryo-EM of the purified full-length transporter, no inhibitor; KCC2 at 3.2 Å, KCC3 at 3.3 Å overall
[2] = molecular target: the molecule itself; test: as above

stoichiometry N [1]: 2
Molecule: human KCC3 (SLC12A6), K+-Cl- cotransporter 3, full length (from UniProt Q9UHW9-2 1-1099) (natural protein)

B1: human KCC2 (SLC12A5), K+-Cl- cotransporter 2, full length (natural protein, UniProt Q9H2X9 1-1139, looked up)
chain: MSRRFTVTSLPPAGPARSPDPESRRHSVADPRHLPGEDVKGDGNPKESSPFINSTDTEKGKEYDGKNMALFEEEMDTSPMVSSLLSGLANYTNLPQGSREHEEAENNEGGKKKPVQAPRMGTFMGVYLPCLQNIFGVILFLRLTWVVGIAGIMESFCMVFICCSCTMLTAISMSAIATNGVVPAGGSYYMISRSLGPEFGGAVGLCFYLGTTFAGAMYILGTIEILLAYLFPAMAIFKAEDASGEAAAMLNNMRVYGTCVLTCMATVVFVGVKYVNKFALVFLGCVILSILAIYAGVIKSAFDPPNFPICLLGNRTLSRHGFDVCAKLAWEGNETVTTRLWGLFCSSRFLNATCDEYFTRNNVTEIQGIPGAASGLIKENLWSSYLTKGVIVERSGMTSVGLADGTPIDMDHPYVFSDMTSYFTLLVGIYFPSVTGIMAGSNRSGDLRDAQKSIPTGTILAIATTSAVYISSVVLFGACIEGVVLRDKFGEAVNGNLVVGTLAWPSPWVIVIGSFFSTCGAGLQSLTGAPRLLQAISRDGIVPFLQVFGHGKANGEPTWALLLTACICEIGILIASLDEVAPILSMFFLMCYMFVNLACAVQTLLRTPNWRPRFRYYHWTLSFLGMSLCLALMFICSWYYALVAMLIAGLIYKYIEYRGAEKEWGDGIRGLSLSAARYALLRLEEGPPHTKNWRPQLLVLVRVDQDQNVVHPQLLSLTSQLKAGKGLTIVGSVLEGTFLENHPQAQRAEESIRRLMEAEKVKGFCQVVISSNLRDGVSHLIQSGGLGGLQHNTVLVGWPRNWRQKEDHQTWRNFIELVRETTAGHLALLVTKNVSMFPGNPERFSEGSIDVWWIVHDGGMLMLLPFLLRHHKVWRKCKMRIFTVAQMDDNSIQMKKDLTTFLYHLRITAEVEVVEMHESDISAYTYEKTLVMEQRSQILKQMHLTKNEREREIQSITDESRGSIRRKNPANTRLRLNVPEETAGDSEEKPEEEVQLIHDQSAPSCPSSSPSPGEEPEGEGETDPEKVHLTWTKDKSVAEKNKGPSPVSSEGIKDFFSMKPEWENLNQSNVRRMHTAVRLNEVIVKKSRDAKLVLLNMPGPPRNRNGDENYMEFLEVLTEHLDRVMLVRGGGREVITIYS
notes: K+-Cl- cotransporter KCC2 (SLC12A5), human, full length; Printed residues: Y407, N-terminal loop A65-N83; It says the KCC2 structure is very similar to that of KCC3; source: expressed and purified
binding result [2]: binds
